Test results from the domain aggregation screens of Martell et al. (2025).

test: soluble fraction after stress (log2 fold change); higher = more stays soluble; pooled small domains, quantitative proteomics; conditions: stress: 50 degC
Method in brief: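 Quantitative proteomics served as the high-throughput read-out for pooled custom libraries of small protein domains. Each was stressed at 50°C. Aggregation propensity is expressed as the base-two log fold change in soluble protein after stress. A higher value means a larger share of the protein remains in solution.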

“HMGHLSNENAGRLLDRVLNDKIHAIMLGHLSKENNMPELAHEAVRMEITMGESRYKADDFPIYVA” and “HMGHTKLVVDIVEELKLEQGALLPILHAIQDELGYVPTKSVPFIADSLNLSRAEVHGVISFYHYFR” are within 0.2 log units of each other in “soluble fraction (log2)” value: 0.11 for the first, 0.15 for the second.

Compared with “HMGIAWGMLREQVAASDVSYRSEVLDILDRTPVWIYDAEGKIVDGRKKRLMDLQGGEPYRHMLEHFFPDLR”, “HMGIDAIDNFVSKIIMKIEGLGESEVPTSTIGKFIMEGLQYLDTVAYVRYASVYKNFKEAKDFEQFVGSL” is higher in “soluble fraction (log2)” value: -2.48 for the first, -0.179 for the second.

Going from “HMGIDRPLFTLAQFARQIGEQVKISLSLPQDGRRRLQGKVLSVGESGIVLDVDGREFTVAIGNVDKARL” to “HMGIDSSVYVEARYELGHLYLKQKKYAAAYASFKEILDMYASTTPGVLPGAYNKLAEIGMKRIPKNKL”, the “soluble fraction (log2)” value falls from -1.24 to -2.74.

Going from “HMGIIQAQIPGLVSRLFVKKGDKVAVNQRLFILEAMKMENEIDSPIQGMVEKIHITTGSKVEKGDLIMEIV” to “HMGIIYGKNPVLEAISSGTTINKIYAQTSNKEIDSVIKEALKRKIIVVNTDKQKLDKMIDGKNSQGIIASI”, the “soluble fraction (log2)” value rises from -0.323 to 0.317.

Going from “HMGIKAADIVTNDIQFNTQAQFDKYKDLYPTLGWGNYDPNKTYTMQGFKNKLKPNELFTGTPNLKIEDT” to “HMGIKDRIVYIMEKEKLSIPLFAKKIGIGPSTLLHIIRGKNAPSLQVVQAIHKAYPDIDLNWLI”, the “soluble fraction (log2)” value falls from 0.141 to -1.08.

Going from “HMGIKSSASLQEAAEKAQSAYYDIEHSGVATAVDIQRAWVAMVAAQIDAGEKLDSGTITLYERLKTST” to “HMGIMNFDTWLKSLPGTPTPTIAAKKSGLAAPTLLRHVERGYSTADNVIAIAKAYGVSPIDALVDNGML”, the “soluble fraction (log2)” value falls from 0.0423 to -0.695.

Going from “HMGIMSEITHRVLRLLGLLESRSTWTGSDLAERLGVTQRTIRRDVIRLRELGYQVDSVQGLDGGYRMS” to “HMGIPVSIGQLDFNQARGNLALQVRASDFAALEQLRQRLGQTGESVQLGSASRDGDAVSARVVIGGQ”, the “soluble fraction (log2)” value rises from -2.48 to -0.015.

“HMGIQQNHMTLHARSVASSANVPAEHFDTLVEKLIESGDIKVWKAREILMNLSRQHEEILDES” and “HMGISGSDLEKMIRNILVNNTDVVETIKSGQDKKGKKQKFLQGLIMKEARGQTDPREAASLLAKLLE” are within 0.2 log units of each other in “soluble fraction (log2)” value: 0.0119 for the first, -0.0715 for the second.

Compared with “HMGITMFGQNLKKLRTSKNLSQSKLSKILGISSSTIGMYEQGRRFPDQTILTKIADFFDVSTDYLLGR”, “HMGIVAQLPTIRVNGKTLYYYDAQSGDNIYSIAEKLGVTVEDIRANNPGVADGVKPRMRLFFPTSLAK” is higher in “soluble fraction (log2)” value: -0.268 for the first, 0.165 for the second.

“HMGIVYGVIKENWDQDHPGMVKVEILQGESGKNVSDWIPVMSPYAGKEFGAYALPEIGTQAVVAFE” and “HMGIYDQAAAAYIEFVESKNRAPKWNELIDALYKENGKDWIDRSTLHGLLRRKEFQELLAQKRKEHLV” are within 0.2 log units of each other in “soluble fraction (log2)” value: -0.0355 for the first, -0.184 for the second.

First: HMGIYFIIAAKNQENNIEEFIRTTLFRIVYGKEESINNITLVDLKSKDNTKNIMEEIARENENVKV
Second: HMGKAPREVQVGELLRVPALNAEGEVLRRDGESVELSIQGKKLRLPLAQLEAFSPRRFARRGEGKVRGRIE
The “soluble fraction (log2)” value of the first is lower: -0.335 for the first, 0.432 for the second.

Going from “HMGKDLLGYEVFAESGDLVGILKDVMWLPHSDVYVITKGGKEFLIPVIPEVVKGINHEQGVIVISPMEGLL” to “HMGKDTLKLKKNAIPYDENGKKLTNLGYSYIKKTTVLNYYGTKIINGSTYYFLGDGVYIKAANVGTTSH”, the “soluble fraction (log2)” value falls from -0.0165 to -2.23.

Compared with “HMGKEYERALQQVTKSEIDSDEKLQQQMDALVNSPRISDKEDAWALLLVKKLRNEGVEWDELPDVLSERVQ”, “HMGKGGVAYLLESEFGIELPKDMQREFGPIANDIVDSLGREVSGAELKSMFWKEYIERETPFLLLLVTGQL” is higher in “soluble fraction (log2)” value: 0.0796 for the first, 0.457 for the second.

“HMGKIFSELTPREIEVVRLIADGLSNQQIAEELFLSNGTVRNHISTILEKTGLEHRTQIAVMWLR” and “HMGKKIVERRNTILNMVNKYGTLDFPQLRDAFPDVSDVTLRKDLQYLDSTKQAIRTHGGIKSI” are within 0.2 log units of each other in “soluble fraction (log2)” value: -0.146 for the first, 0.0534 for the second.

“HMGKLQFREKLNGILELGKEKHRVLTMEDVEKYFEEDALSEEQMELVYDYLLSQKIAVTGYVKK” and “HMGKPPNNRIHRAKRDYALNLVKEHYPDFGPTLAAEKLAEHHGFTVSRETLRKWMIEDGIWLSRKQRR” are within 0.2 log units of each other in “soluble fraction (log2)” value: -0.191 for the first, -0.123 for the second.

“HMGKQIKEIVEEYYDSTSKNSPVGGSWKTSLDGVDLTSPNITIWTRTKIKYVDGSESIVTPQSL” and “HMGKRPTIQMVAEMAGVSRGTVDRVLNGRSYVSAQVRQRVLAALQETGYISSREHHQQALQS” are within 0.2 log units of each other in “soluble fraction (log2)” value: -0.0357 for the first, -0.0246 for the second.

Compared with “HMGKRRGLKVAEEVFADRGYNPDGTLVNRSLPGAFVKDPDEAIARVIKMVKTKKVTAVNGEEIDIAADSI”, “HMGKSDEIFIQKSALYEELGQPDRALEMIYSALKSDSLNIDVLHRLVTLLINQNKNEDAILYNQKIID” is lower in “soluble fraction (log2)” value: 0.132 for the first, -0.193 for the second.

Going from “HMGKTEETLQMEKLVEALRRSGRMKYEDAYRIVYAAFPDAKDFEGMLSGAIRAGFIELQMGNDGAFLRAL” to “HMGKVNGFEITVIEGKNVVGSITPRQAIAKNSDGVIQLRGEQSFSATDQVLINELAFYIKSNNLKA”, the “soluble fraction (log2)” value falls from -0.172 to -0.949.

“HMGLAALLQSGPVAGTVLSHQPGGKVVIAFQGQAYPLNLKGRTLQPGQSVLARMAGEQISLEVI” and “HMGLDERNLKLFAASLLEQAGKKITESTMTYLLDKTGSDMENIQNEVEKIIGYTMNHTVVTTEDIDAV” are within 0.2 log units of each other in “soluble fraction (log2)” value: -0.289 for the first, -0.271 for the second.

“HMGLDPVFKKWVDDNPWYTENRVLRALTHDYAEELKQTNPQLVGVEFLDQVKKRVQADHPEFFQ” and “HMGLGDLEVVDSIGKIRRDGQQMILAFGRHKGRDVQEVYNEDPRYINWLLSPKGIEDENGRGKVRDYLGIN” are within 0.2 log units of each other in “soluble fraction (log2)” value: 0.141 for the first, 0.163 for the second.

“HMGLKQADFEELASRIFTVLEEKSMTPAEIVRKLNLEPDRISIVIQYLLDEGKLNIKDGFINNSA” and “HMGLLGIYPNPVEGGSVRLLSDADLFGSRFELYDQSGKLVLNGFVTEGNFVSVKGISSGLYISVSYT” are within 0.2 log units of each other in “soluble fraction (log2)” value: -0.107 for the first, 0.0024 for the second.

Compared with “HMGLLGTDISAETMIGYFKKIDLGFDEETQEVIVPSWRQDLLRDADIAEEVARFYGYDNIPTTLPSGEST”, “HMGLNLIGLKRSGFAPEEVKAMTRAYMYIFKSAEGNFESRLAKAHEKYKDDALIMEMVEFIDDALKG” is lower in “soluble fraction (log2)” value: -0.122 for the first, -0.906 for the second.

Compared with “HMGLQEADKQDRIARMKELISFLNEAAKAYYQEGREIVSNLEYDKAYDALLSLEKESGVVLSGSPSQNVG”, “HMGLRERLLNYIAYKGIDKATLERKSGLSNDAVNKMGDNTRVSTLDKISNAFPDINIAWLKTGVGEMILG” is lower in “soluble fraction (log2)” value: 0.147 for the first, -0.113 for the second.

Going from “HMGLSAALKARLREVINEMAKSGAQPKLREWALAEGIGNFAKPETPEAAEAVIAKAQELLAEA” to “HMGLSASVIQMFADLGYTSEGRSTKEMITDYQIDHSIIKNSTEDGAGTYGPRTKASLSTVHAQYI”, the “soluble fraction (log2)” value falls from 0.547 to -0.103.

Compared with “HMGLSENALAMLKQQETVLIRLIDGRGNQGALASINLIVSRILNLDIVDRTPEDLLRVIASEGEQND”, “HMGMIRFSKEEQMLMMLYSPGSRLGLIAELESMKLQLNSRERKLRNLAESVLKKLEQITDEEFMQFDF” is higher in “soluble fraction (log2)” value: -3.78 for the first, -1.31 for the second.

“HMGMNSGQADFRGISLALSVDAEAEAQRLFTALADGGQVQMPLSKTFFSPAFGMVADRFGVGWMVVTN” and “HMGMSENIDKVAGGIPYKVEGNKAIINEPLDDATKERLMGKAKEHGYHAAPNQAGGITITLK” are within 0.2 log units of each other in “soluble fraction (log2)” value: 0.247 for the first, 0.134 for the second.

First: HMGMSKQKQSSLVRIIMQEISDANEGRMKMSQIIDAALIKGISDSTVRSVISRLSTTGAIYEPQTGTYEW
Second: HMGNEEEEAIREAEEAIERVLEYGEPQELNPQNGFIRRLQHQLAEKSHLSSESVGVEPYRRVRISK
The “soluble fraction (log2)” value of the first is lower: -0.643 for the first, 0.185 for the second.

Compared with “HMGNFFDSAILALKNAIQENYGGNVSQAARSLGISVPTLHTWIKGDRKPSLEKLSPILDALNAKIVL”, “HMGNFGDLLKILLDEKELSMGELSKKSGIDKSTISRIANNKQKPNINHLEKMAIHLNINLEELLKASGYEF” is higher in “soluble fraction (log2)” value: -0.726 for the first, -0.364 for the second.

“HMGNFQNIFRKLRTSSNLTQNAIAEKLGISRSTIGMYETGAREPDFETLEKIADYFNVDTDFLLGRTNQTT” and “HMGNKDAQLVHLAKMNEIQIELMKTGRGYMVTDQNVYNLAKKMGENMGFKHPDLFLTDPAKV” are within 0.2 log units of each other in “soluble fraction (log2)” value: -0.106 for the first, -0.0553 for the second.

First: HMGNKDIEILFSEIVEMRNRIIHGFRITSKQGEQILATKTRKKDGNIQFEITKEYLLDFIKKNEELSDMLY
Second: HMGNKWALLVVFILNENGSTRFNQLARQIPDISTKVLSNTLQILEADGLVKRTVFPEVPIRVEYELTATGK
The “soluble fraction (log2)” value of the first is higher: -2.23 for the first, -3.64 for the second.

Going from “HMGNLIIFYDEGIGSGPLMKAVNDSGVSLVYEYKNLHGIAIRPSAKTNIQDAIAYFQKVNGVLSVEQ” to “HMGNNKLVLSLAVALKNTPNFLKNYNYKISKDKKFIEILLSKQINEVSDIIINLKKNNINIVDLNIKKR”, the “soluble fraction (log2)” value rises from -2.52 to -1.51.

“HMGNNTEITYSEFIRQAEAGNVQYVTVDGEKLLISATDGKSYYTINPRDDQMTDRLLNSGVEIRAEPQ” and “HMGNRQEQVRIIRDLWRQLADAGQPVPAKHLTLDLDALDATQLTKLEDQAHGWLAKLSAQADLADAA” are within 0.2 log units of each other in “soluble fraction (log2)” value: 0.101 for the first, -0.0488 for the second.

Compared with “HMGNTMIVILKHEARQEQIDRLKQFLLGMGLRIDESKGENSTILGLVGDTTRVDADLISSLDAVEAVRRV”, “HMGNWENVEKETTEAIMAVKNGEAVWVDLAPANRMIRQMQHELVEQYGLLSQSYGKEPKRRIRIFQNP” is lower in “soluble fraction (log2)” value: -0.0449 for the first, -0.337 for the second.

Compared with “HMGPDALSIGRRVRQVRTARGMTLDELAAAVSRAPSQLSMIETGKREPKLSLLQAIARALGTTIDALLT”, “HMGPDGLFAKFREPETGKDLLITQNVFVEQVLIKGVLTRTLTDAEANTYRAPFVNPEKRFPIYVWPNELP” is higher in “soluble fraction (log2)” value: -0.176 for the first, 0.142 for the second.
